Assay results: publication PMC3740589

Biological target: Bcl-2 (UniProt P10415)
Assay: Flag-Beclin1 IP, Bcl-2 immunoblot
Conditions: reference: Flag-Beclin1 wild type; sites T119

binding against the reference: stronger
Substance: Beclin1 (from UniProt Q14457) Flag-Beclin1 T119A
